Data taken from a protein production outcome set (Wang et al. 2014).

Experiment: label from the status in PepcDB records

For “MSDKRNPRISSRKQPQQARSSELVASILEAAVQVLASEGAQRFTTARVAERAGVSIGSLYQYFPNKAAILFRLQSDEWRRTTRLLGEILEDTTRPPLERLRRLVLAFVRSECEEAAIRVALSDAAPLYRDADEAREVKAEGARVFQAFLREALPEVAEAERSLAGDLLTTTLGAVGKQFSEQPRSEAEIERYAEALADMLCAYLAALGER”, the protein production was “not failed”.
In the case of “MSDLLPLISVYGYVAALLLISEKTLKNEVVSRKFLHIMVGNIAFILPFFESRFVMAFLAAFPFVVLTFLMSPHSPVKLSSRTSVAGHGLGLVYYSIAWTVLAYAFFDRPDVIAVGIMAMSYGDGLASLIGGRYGKRKFRILGDEKSLEGSVAMFLGCVASFSVVSLYYHGSAGPLLLPLAAFATVVEAVTPKGLDNLSVSILTAILYFWMA”, the protein production is reported as “failed”.
For “MSDLQSLQPKLLWQWFDQICAIPHPSYKEEQLAQFIINWAKTKGFFAERDEVGNVLIRKPATVGMENRKPVVLQAHLDMVPQANEGTNHNFDQDPILPYIDGDWVKAKGTTLGADNGIGMASALAVLESNDIAHPELEVLLTMTEERGMEGAIGLRPNWLRSEILINTDTEENGEIYIGCAGGENADLELPIEYQVNNFEHCYQVVLKGLRGGHSGVDIHTGRANAIKVLLRFLAELQQNQPHFDFTLANIRGGSIRNAIPRESVATLVFNGDITVLQSAVQKFADVIKAELALTEPNLIFTLEKVEKPQQVFSSQCTKNIIHCLNVLPNGVVRNSDVIENVVETSLSIGVLKTEDNFVRSTMLVRSLIESGKSYVASLLKSLASLAQGNINLSGDYPGWEPQSHSDILDLTKTIYAQVLGTDPEIKVIHAGLECGLLKKIYPTIDMVSIGPTIRNAHSPDEKVHIPAVETYWKVLTGILAHIPSR”, the protein production was “not failed”.
With “MSDLVRVERKGRVTTVILNRPASRNAVNGPTAAALCAAFEQFDRDDAASVAVLWGAGGTFCAGADLKAFGTPEANSVHRTGPGPMGPSRMMLSKPVIAAVSGYAVAGGLELALWCDLRVAEEDAVFGVFCRRWGVPLIDGGTVRLPRLIGHSRAMDMILTGRGVPADEALAMGLANRVVPKGQARQAAEELAAQLAALPQQCLRSDRLSALHQWGLPESAALDLEFASIARVAGEALEGARRFAAGAGRHGAPAPRAEQGDTL” the protein production was “not failed”.
In the case of “MSDPGFEYAPIGLVELENRVIRRCNLHFASMFGGQESEYRDMPLLRLYPSHEDFERIGKRGLQVMRETGYYTDERIMRRRDGDLFWCRARGKSLTPDDPFRHGIWSFADISEERRVVELTPREREVALLTCRGLSAKEVGVELGLSYRTIEAHRARLLQKFGARKLPELVAKLSGMPL”, the protein production is reported as “failed”.
For “MSDPGNEQNGDGIDPAIVEVLLVLREAGIENGATPWSLPKIAKRAQLPMSVLRRVLTQLQAAGLADVSVEADGRGHASLTQEGAALAAQLFPDPF”, the protein production was “not failed”.
With “MSDPYERVNGGRLAFKGGDLATRKSIEKKKKKKQKKNKEKLDGVEDGAKTAPDGSPPPAAAAGDEDIYSIDAAKKKKYDDLFPVEAKKFGYIPKANFESREDALDDRVKKKADRYCK” the protein production was “failed”.
With “MSDQKNRRNALIGAAFLMATSAIGPGFLTQTATFTQALAASFGFVILLSILLDIGAQLNIWRIVAVSEKQAQDIANQVLPGAGYFLAVLIVMGGLAFNIGNVGGAGLGLNLLTGLSPETGAVISGVIAIGVFLFKEAGKVMDKFAQVMGFVMIALTVYVAWQANPPLADAAVHTFMPEKLDAMAIVTLVGGTVGGYITFAGAHRLLDAGIKGKSALPEVSQSSVRAILIASIMRIVLFLAVLGVVSQGVQLNPDNPASTPFEYAAGYIGLLIFGVVIWAASITSVIGAAYTSVSFFSGLSPSIERNKNKWIIAFIAVSTAVFSTIGKPAQVLVFVGALNGLILPISLGLILIAAYKTKIVGDYKHPLWLTVSGVIVVGLMAVLSAITISKYIGGLFG” the protein production was “failed”.
For “MSDQPMNEVQDNAAPANPWLELRRLTPARIALGRTGTSLPTCAQLDFQAAHAQARDAVHLAFDHAAISAQLAEKGRETILLHSAAADRDSYLQRPDLGRRLNDESAQTLRDYAAAHPGGLDLAVVVADGLSALAVHRHAVPFLTRLEEQASAEGWTLSPVLMVEQGRVAVADEIGELLGAKMVVILIGERPGLSSPDSLGLYFTYAPKVGLNDAHRNCISNVRLEGLSYAMAAHRLLYLMREACKRQISGVSLKDEAQLNTLESDDSAENSDRKIGNFLLDGPAVPH”, the protein production was “not failed”.
For “MSDRKTMWDERYDTTDFVYGREPNAFLAEVVQQIPPGDVLCLAEGEGRNAVFLAKQGHRVLAVDSSAVGLVKAARLAEESGVRIETETADLAEFAIEPVCWDAIVSIFCHVPPQVRRALHRKVVEGLRPGGLFILEAYTPAQLKLRTGGPPTEEVMMTLAGLREELAGLEFLQAREIEREVVEGRFHTGRGAVVQVVARKP”, the protein production was “failed”.
In the case of “MSDRSSLFDVRSSTSVTLDQVVRRDTVEIPDEAALAMPVQPLSFWQGGARRATALTQDMNLRRWMLGLMTIAMGVAGWKASFDTIALGGVTRLEAVVLTLLAPLFLALSLWFCTALIGFVVLMGRPKDPLGIDSEAPMPKLHTRTAILMPVYNEDAAAVFARLRAMDASIAETGSARNFDIFVISDTRDAQVALAEQACFARFRREANCNVYYRIRKENTGRKAGNVADWVSRWGSAYEHMLVLDADSLMTGEAMVRLADAMERHPGAGLIQTMPMIINGQTIFARTLQFATRLYGRVAWTGLAWWSGSESSFWGHNAIVRTRAFAETCGLPHLPGPKPFGGEVMSHDALESALLRRGGWSVHLAPYLDGSYEESPSNLLDFATRDRRWCRGNIQHVPLIALPGLHWMSRMHLVIGVLSYALSPLWFFCLSAGLISRALMPELKKAAFTMADLKAAAHALIDWSEIQATAWAMIITFVLLFGPKILGAILVLARKGEVKGFGGKRRMAAGLGVEMLLSALVAPMLMFTQTRAIVEILAGKVGGWAAQRRDADKVDFKEAWAAMGWISLSGLILAASFWFTPDLLTATAPILAGLVLAVPLTMLGAHKVAGLKLKANGLFMTPEERRPPAIVRAAVGAACEPPIRWFARNGRPIGPTTKIRDAA”, the protein production is reported as “failed”.
In the case of “MSDSLPQRNGGQILVEALRRNAVDTVYCIPGESYLPVLDALYDTDGIRTVVTRHEGAASNMADAYGKLTGRPGICFVTRGPGATHAANGVHTAQQDSTPMILFVGQVESAFKGREAFQEVDYVQMFSGLAKWAVEIDRIERIPEIVGRAFSVATSGRPGPVVVALPEEILFGSAQVADAPEPRVLPGRPGATAMAELRELLANARRPLLVLGGSGWDSAARKRLGAFVEANGLPVATSFRRQDLFDNRDPHYAGQLGFGAAPALLERLRQADLLLVVGARLGETPSAGYSLVRSPAPAQTLIHVHPDSAELNRVYLARLPIQATPCAFAEALADLAPLPSSTWQDWREAAHADYLAYSTPAASDPAVQGVDLASVVAYLSENLPDDAVIANGAGNYAVWVHRFYRYRQARTQLAPTNGAMGYGLPAAIAASLRDPQRSVVCFAGDGCFMMYPQELATAAQFGATPVVIVVNNGMLGTIRMHQEREYPGRVSATRLDNPDFVALARAFGAHAERVECSADFPAAFRRARESGRPALLELLTDPRQITPQA”, the protein production is reported as “failed”.
With “MSDTPQAILLMGPTASGKTGLALELARRFPVEIVSVDSALVYRDMDIGTAKPTAEEMAACPHHLIDVISPLQSYSAAQFHADANRLIADIQARGKLPLLVGGTMLYYKALLEGLSDLPQADAALRAELDADAALLGWPAMHARLAELDPATASRLNPNDSQRIHRALEVCLLSGKPMSELIAQGKEAAAGFRFLPLALVPRERGWLHARIAERFRIMLEQGFLDEVSRLRAKYPELTLNLPSMRCVGYRQAWEHQDGLYGHDEFVERGVAATRQLAKRQLTWTRSLDAIPVDAQRDGLAGLLGDAVDDFLAGRPPAESLRYAGDFLEHHHHHH” the protein production was “not failed”.
For “MSDVEDVPETQLEIDVSDGAGLEDEDDDDMEQITAQKVLEIIETAWINEMCAPEILPSQTDMLELMVSQVAHMEEQMRDLDKNDFRAVVHSMELERVRYIMASYLRCRLQKIETFTQHILNQEESREPDDKRLSPEETKFAQEFASNVDEYFHKVATQYMPNQQRGEAEQRIVTPNLMSHVFLKANVAVPAVIVGVDDEEVDMAAGSQHIIPYQLVADLIQNNQAQLI”, the protein production was “failed”.
For “MSDVIQLAYFAVAVVFILGLKAMSSPVSARKGIVWAGYAMVAATLITLLKPGMENYGLMITAIVLGGAVAWWSGKVVKMTDMPQMVAIYNGMGSGAAAAIAALEFARGSMHGGFAATLAVLGALIGSVAFSGSCIAFAKLQGIMTKAWRLPAQNVVNVALAGIALVLGGAIIFGSTPASEMVIAFFVVALALGAILTSPIGGADMPVVISLLNAFTGLAVGFEGYVLGNPALIVAGIVVGASGTLLTQLMAKAMNRPIKNIIFTPITGAAAGGGEAIGGSMKELSALDGASVMRYASKVIIVPGYGMAVAGAQHKVWEMAQLLEEGGVEVVFAIHPVAGRMPGHMNVLLAEAGVPYDKIFDLEEINADFPQADVALVIGANDVVNPVARTDKSSPIYGMPILNVDMAQNVIVVKRGQGAGYSGIENALFFKDNCRMLYGSAQQIIGEVITHVKALEV”, the protein production was “failed”.
With “MSDVRTNEAEKRHAHPDFDAARFPADARVRVLARRFPPYHRDSPCLAILDRFLHDPTLSAAAVVDDAMRPVGLIDRYSLVEQFLHPYSRDLYHKHSIAAFMDPEPVIVEADSSIDDLSRIIIDAGMRHMVSGFIVTEDGLYLGIGSGHDLFEEVANRKQNHLYHLAHYDPLTSLPNRLLLNDRLKRACLRGQRGGYRIALLFIDLDRFKLVNDTLGHAAGDQLLQGVAGRFAACVRKVDTVARLGGDEFTVLLEPVQGPDEALAVAAKLAQSLERPFLIQNHEITTSASIGVVLFPEHDATVEGLMRKADAAMYCAKREGRNRFALFTEEMNSTVVERVTLESYLNAALEKGEFCCHFQPQMATADDRIVGVEALLRWTNPVLGRVPPLKFIPVAEDTGLILPLGLWALETACAQQVRWLSQGLPPLRMAVNISPLQFRNREFCDQVRAIVQRTGIRAEHLELELTESAVMADAESSVGILRELRDSGIRLAIDDFGTGYSSLSYLRKFPLDRLKIDRSFVSGIDRIPANELIVKAIVALGGSLGLDVIAEGVETPEELECIERCGCSEYQGFRLSEPLTAEDFAHWFEDSGYV” the protein production was “failed”.
For “MSDYLDMLASFGVSSAHPGGMSLSKAVLAKAGIDPEQPILDAGCGTGQTAAYLGQLLFPVTALDADPVMIDKARQRFKKEQLSIPAVRSPLEEMPFQSESFACVLTESVLSFTNIRSALQEIRRILKPGGMLVAIEVCLKEGNALTDEAKKEITEFYGFTALYDEDEWVNVLREEGFSKIDIIPVVLEDAGDPDDAVEMDLSPAISDKDYETMEKHLHYLEKYRDSLDHIIFISHL”, the protein production was “failed”.
With “MSEAKELIKKMCDLQNSNEEIQKEMAGWSGVVQYKLDGYYFYVEYKSDGTCEFKEGVHSSPTFTVVAPPDFWLAVLKGQEDPVSGFMMGKYRIEGNIMEAQRLAGVIKKFQGKFEL” the protein production was “not failed”.
For “MSEALELLGQDIVARAPGVLGHSVAFGELTIVARAASVIDTLTFLRDDAACRFHQLIDLTGVDYPERAARFDVVYHLLSLVKNHRIRLKVSTDEDTPVPSVTPVFPVADWFEREAFDMYGIFFDGHPDLRRILTDYGFHGHPLRKDFPMTGYVEVRYDDELKRVVYEPVKITEFRAFDFLSPWEGAKYALPGDEKAQ”, the protein production was “failed”.
For “MSEDEAQFHGNYDDYVTYLKRRIRQLELQVRMLEADKERLERELSRLRSEMSRLRQPPAFAGSVIEVLDDDRAIVQNYNGPRFVVRIAPWIDKSKLRPGTRVALDQRTMAIIEILPASKDPAVLGFEVVERPN”, the protein production was “failed”.
In the case of “MSEDRSSNGQKSWLGKLTQAFVHEPKNRQELLELLREAHQNKLLDSEALAIVEGAIQVADLQVRDIMVPRSQMISIKATQTPREFLPAVIDAAHSRYPVIGESHDDVLGVLLAKDLLPLILKADGDSDDVKKLLRPATFVPESKRLNVLLREFRANHNHMAIVIDEYGGVAGLVTIEDVLEQIVGDIEDEHDVEEDSYIKPLPSGDFLVKALTPVENFNEFFDSAFSDDEFDTVGGLVMNAFGHLPKRNEITEIGAYRFRILSADSRRIHLLRVTPISRP”, the protein production is reported as “failed”.
